The labels stand for the following.
T1: SHP-2 (endogenous, in BaF3, P210BCR-ABL BaF3 and BAC1.2F5 cells) (UniProt P35235 2-593)
T1 sequence (looked up): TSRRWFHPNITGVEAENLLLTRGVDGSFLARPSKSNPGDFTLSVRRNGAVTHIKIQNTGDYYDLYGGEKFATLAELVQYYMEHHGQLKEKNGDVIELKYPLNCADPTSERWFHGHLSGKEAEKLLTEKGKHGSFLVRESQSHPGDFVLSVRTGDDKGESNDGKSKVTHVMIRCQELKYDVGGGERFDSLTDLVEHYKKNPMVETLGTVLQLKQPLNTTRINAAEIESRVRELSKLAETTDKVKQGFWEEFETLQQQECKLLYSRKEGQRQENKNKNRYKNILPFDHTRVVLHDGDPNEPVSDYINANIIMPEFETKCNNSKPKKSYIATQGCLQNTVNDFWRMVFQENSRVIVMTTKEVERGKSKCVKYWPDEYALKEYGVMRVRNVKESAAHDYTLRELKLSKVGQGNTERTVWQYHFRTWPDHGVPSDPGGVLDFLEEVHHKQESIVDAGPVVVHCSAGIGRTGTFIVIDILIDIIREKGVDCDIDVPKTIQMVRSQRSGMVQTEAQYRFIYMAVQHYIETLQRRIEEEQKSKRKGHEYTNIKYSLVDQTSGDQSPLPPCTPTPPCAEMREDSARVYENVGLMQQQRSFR

B1: Crk-L (endogenous, in BaF3 cells) (other, UniProt P47941 1-303, looked up)
chain: MSSARFDSSDRSAWYMGPVTRQEAQTRLQGQRHGMFLVRDSSTCPGDYVLSVSENSRVSHYIINSLPNRRFKIGDQEFDHLPALLEFYKIHYLDTTTLIEPAPRYPSPPVGSVSAPNLPTAEENLEYVRTLYDFPGNDAEDLPFKKGELLVIIEKPEEQWWSARNKDGRVGMIPVPYVEKLVRSSPHGKHGNRNSNSYGIPEPAHAYAQPQTTTPLPTVASTPGAAINPLPSTQNGPVFAKAIQKRVPCAYDKTALALEVGDIVKVTRMNINGQWEGEVNGRKGLFPFTHVKIFDPQNPDDNE
notes: Named in brackets next to Crk
B2: Gab2HA (HA-tagged wild type Gab2) (other, not shown: small tags and cut ends)
chain: MSGGGGDDVVCTGWLRKSPPEKKLRRYAWKKRWFILRSGRMSGDPDVLEYYKNEHSKKPLRIINLNLCEQVDAGLTFNKKELQDSFVFDIKTSERTFYLVAETEADMNKWVQSICQICGFNQAEESTDSLRNLSSASHGPRSSPAEFSSSQHLLRERKSSAPSHSSQPTLFTFEPPVSSHMQPTLSTSAPQEYLYLHQCISRRTENARSASFSQGTRQKSDTAVQKLAQSNGHCINGVGGQVHGFYSLPKPSRHNTEFKDSTYDLPRSLASHGHTKSSLTGSETDNEDVYTFKMPSNTLCRELGDLLVDNMDVPTTPLSAYQIPRTFTLDKNHNAMTVATPGDSAIAPPPRPPKPSQAETSQWGSIQQRPPISENSRSVAATIPRRNTLPAMDNSRLHRASSCETYEYPARGSGESASWSAEPPGKTAVGRSNSASSDDNYVPMNPGSSTLLAMERPGDNSQSVYIPMSPGPHHFDPLGYPSTALPIHRGPSRGSEIQPPPVNRNLKPDRKAKPTPLDLRNNTVIDELPFKSPVTKSWSRINSHTFNSSSSQYCRPISTQSITSTDSGDSEENYVPMQNPVSASPVPSGTNSPAPKKSTGSVDYLALDFQPGSPSPHRKPSTSSVTSDEKVDYVQVDKEKTQALQNTMQEWTDVRQSSEPSKGAKL
modifications: tyrosyl phosphorylated upon IL-3 stimulation
B3: Crk (endogenous, in BaF3 cells) (other, UniProt Q64010 2-304, looked up)
chain: AGNFDSEERSSWYWGRLSRQEAVALLQGQRHGVFLVRDSSTSPGDYVLSVSENSRVSHYIINSSGPRPPVPPSPAQPPPGVSPSRLRIGDQEFDSLPALLEFYKIHYLDTTTLIEPVARSRQGSGVILRQEEAEYVRALFDFNGNDEEDLPFKKGDILRIRDKPEEQWWNAEDSEGKRGMIPVPYVEKYRPASASVSALIGGNQEGSHPQPLGGPEPGPYAQPSVNTPLPNLQNGPIYARVIQKRVPNAYDKTALALEVGELVKVTKINVSGQWEGECNGKRGHFPFTHVRLLDQQNPDEDFS

Test [1] concerns the target T2, Gab2 (endogenous, in BaF3, P210BCR-ABL BaF3 and BAC1.2F5 cells) (Mus musculus (Mouse), UniProt Q9Z1S8 1-665, tyrosyl phosphorylated upon stimulation; Y604 and Y633 'both sites are highly phosphorylated').
T2 construct: BaF3 is a murine line, and KIAA0571 is called the possible human homolog; also called p97; p97/Gab2
Description: immunoprecipitation and immunoblotting, BaF3 cells. (In western blotting, separated proteins are transferred to a membrane and probed.)

For test [2], the target named is B2. Put plainly: immunoprecipitation and immunoblotting, transfected BaF3 cells.
Test [3] addresses T1, SHP-2 (endogenous, in BaF3, P210BCR-ABL …). Description: cell-based or functional assay.

On to B1, for which the binding result in test [1] and in test [2] was “no binding” each time.

With B2, in test [3], the “basal c-fos luciferase activity” value is about 2 fold.

As for B3, the binding result in test [1] and in test [2] was “no binding” throughout.

(Values after patent EP1666595A1 (Beth Israel Deaconess Medical Center, Inc., dated 2006).)
